Measurements reported in paper PMC12007268.

Columns and labels:
[1] = molecular target: trastuzumab (wild-type Fc) (human); experiment: SPR; Biacore T200; trastuzumab-Fc variants amine-coupled to a CM5 chip (about 1,000 RU); hFcRn-His 1,000 to 62.5 nM in 1x PBST pH 6.0, 30 µl/min; 1:1 binding model (trastuzumab: steady state); triplicate
[2] = molecular target: trastuzumab-DHS (L309D/Q311H/N434S) (human); experiment: as above
[3] = molecular target: trastuzumab-EML (L309E/Q311M/M428L) (human); experiment: as above
[4] = molecular target: trastuzumab-PFc29 (Q311R/M428L) (human); experiment: as above
[5] = molecular target: trastuzumab-YML (L309Y/Q311M/M428L) (human); experiment: as above
[6] = molecular target: FcRn immobilised on the FcRn affinity column Gen2 (Roche Diagnostics) (human) (UniProt P55899); experiment: pH-gradient FcRn affinity column chromatography; FcRn affinity column Gen2 (Roche); pH gradient; retention time and pH of elution
[7] = molecular target: human neonatal Fc receptor, His-tagged (hFcRn-His) (UniProt P55899); experiment: BLI; Octet R8; hFcRn-His (40 µg/ml) held on NTA biosensors; trastuzumab-Fc variants in PBS pH 6.0 bound for 20 s, then dissociation in PBS pH 7.4 for 5 s; initial on-rate from the first 2 s, initial off-rate from the first 1 s; values relative to trastuzumab
[8] = molecular target: human neonatal Fc receptor, His-tagged (hFcRn-His) (UniProt P55899); experiment: BLI (Octet R8); settings: PBS (composition not stated), PBS pH 6.0 for association, PBS pH 7.4 for dissociation; for Relative on-rate (initial association rate, normalised to trastuzumab) (fold relative to trastuzumab): pH 6.0; for Relative off-rate (initial dissociation rate, normalised to trastuzumab) (fold relative to trastuzumab): pH 7.4
[9] = molecular target: human neonatal Fc receptor, His-tagged (hFcRn-His) (UniProt P55899); experiment: SPR (Biacore T200); settings: pH 6.0; 1× PBS (composition not stated); 1× PBST (pH 6.0)
[10] = molecular target: human neonatal Fc receptor, His-tagged (hFcRn-His) (UniProt P55899)

| Substance | pH at elution from the FcRn affinity column [6] [pH] | retention time on the pH-gradient FcRn affinity column [6] [min] | average of relative on- and off-rate [7] [fold] | relative initial off-rate at pH 7.4 (against trastuzumab) [7] [fold] | relative initial on-rate at pH 6.0 (against trastuzumab) [7] [fold] | Relative on-rate (initial association rate, normalised to trastuzumab) (fold relative to trastuzumab) [8] | Relative off-rate (initial dissociation rate, normalised to trastuzumab) (fold relative to trastuzumab) [8] | ka [9] [M⁻¹ s⁻¹] | kd [9] [s⁻¹] | also measured |
| --- | --- | --- | --- | --- | --- | --- | --- | --- | --- | --- |
| human neonatal Fc receptor, His-tagged (hFcRn-His) (from UniProt P55899 24-297; P61769 21-119) | – | – | – | – | – | – | – | – | – | Kd [1]: 4.36 µM; Kd [2]: 1.8 µM; koff [2]: 0.0645 s⁻¹; kon [2]: 35700 M⁻¹ s⁻¹; Kd [3]: 1.67 µM; koff [3]: 0.0475 s⁻¹; kon [3]: 28500 M⁻¹ s⁻¹; Kd [4]: 1.81 µM; koff [4]: 0.0721 s⁻¹; kon [4]: 39800 M⁻¹ s⁻¹; Kd [5]: 0.878 µM; koff [5]: 0.0555 s⁻¹; kon [5]: 63200 M⁻¹ s⁻¹ |
| trastuzumab (wild-type Fc) (antibody) | 7.65 | 40.6 | 1 | 1 | 1 | – | – | – | – | – |
| trastuzumab (wild-type human IgG1 Fc) | – | – | – | – | – | 1 | 1 | – | – | – |
| trastuzumab-PFc29 Q311R;M428L | – | – | – | – | – | 1.94 | 1.6 | 39800 | 0.0721 | – |
| trastuzumab-YML (L309Y/Q311M/M428L) (antibody) | 8.09 | 51.2 | 1.92 | 1.74 | 2.1 | – | – | – | – | serum half-life t1/2 (terminal, beta-phase) in hFcRn transgenic mice (Tg276 hemizygous), single i.v. bolus 5 mg/kg, n = 3 [10]: 13.5 days |

Now from value to substance, other results behind:

| pH at elution from the FcRn affinity column [6] [pH] | retention time on the pH-gradient FcRn affinity column [6] [min] | average of relative on- and off-rate [7] [fold] | relative initial off-rate at pH 7.4 (against trastuzumab) [7] [fold] | relative initial on-rate at pH 6.0 (against trastuzumab) [7] [fold] | Relative on-rate (initial association rate, normalised to trastuzumab) (fold relative to trastuzumab) [8] | Relative off-rate (initial dissociation rate, normalised to trastuzumab) (fold relative to trastuzumab) [8] | ka [9] [M⁻¹ s⁻¹] | kd [9] [s⁻¹] | Substance | also measured |
| --- | --- | --- | --- | --- | --- | --- | --- | --- | --- | --- |
| – | – | 1.82 | 1.83 | 1.81 | – | – | – | – | trastuzumab-DHS (L309D/Q311H/N434S) (antibody) | – |
| – | – | – | – | – | 1.81 | 1.83 | 35700 | 0.0645 | trastuzumab-DHS L309D;Q311H;N434S | – |
| 7.97 | 48 | 1.48 | 1.5 | 1.47 | – | – | – | – | trastuzumab-EML (L309E/Q311M/M428L) (antibody) | – |
| – | – | – | – | – | 1.47 | 1.5 | 28500 | 0.0475 | trastuzumab-EML L309E;Q311M;M428L | – |
| 8.05 | 50.2 | 1.77 | 1.6 | 1.94 | – | – | – | – | trastuzumab-PFc29 (Q311R/M428L) (antibody) | – |
| – | – | – | – | – | 2.1 | 1.74 | 63200 | 0.0555 | trastuzumab-YML L309Y;Q311M;M428L | – |
